From patent publication US20240287501A1 (VIB VZW, published 2024)

Experiments:
[1] = biological target: T1, PGI1 (native, un-tagged, from EBY100 lysate) (Saccharomyces cerevisiae, UniProt P12709 2-554); assay: co-immunoprecipitation, Nb coupled to NHS-agarose beads, EBY100 yeast lysate (native target), SDS-PAGE
T1 construct: mature; Endogenous untagged protein, 61 kDa band; also called YBR196C; endogenous PGI1
Procedure: (§1) Each PGI1-specific Nanobody was covalently linked to NHS-agarose beads. The beads that were functionalized with these PGI1-specific Nanobodies were incubated for an hour at 4° C. on a rotating device with either an EBY100 lysate or the lysate of the engineered Yeast strain expressing PGI1 (Yeast GFP fusion collection reference: GFP(+)12, H11) as a GFP-tagged protein. After washing, these beads analyzed on SDS-PAGE (FIG. 14A). Separated proteins were transferred to a PVDF membrane and the Western blot was developed with a GFP-specific antibody to confirm the presence of GFP-tagged PGI1 (FIG. 14B). 55=Nb clone CA17455 corresponding to SEQ ID NO: 15, used as trapper/stripper for PGI1, serves as a positive control.
(§2) Individual clones were isolated from the enriched sub-library by plating tenfold serial dilutions of the overnight-grown phage-infected E. coli TG1 cells in LB. 96 individual clones were picked and grown in a 96-well plate containing LB supplemented with 100 μg/mL ampicillin. Plasmids containing the Nanobody encoding genes were purified, sequenced and grouped into sequence families (Material and methods). A representative member of each sequence family was selected. Six different PGI1 specific Nanobodies, derived from four different sequence families (Nb clone CA17791 corresponding to SEQ ID NO: 46, CA17792-SEQ ID NO:47, CA17793-SEQ ID NO:48, CA17794-SEQ ID NO:49, CA17795-SEQ ID NO:50, and CA17796-SEQ ID NO:51) were selected based on their CDR3 sequences. Their encoding plasmid was transformed into the E. coli WK6 expression strain to express and purify each Nanobody of interest. The specificity of the PGI1-specific Nanobodies was confirmed by linking separate Nanobodies on NHS-agarose beads for co-immunoprecipitation assays. The beads that were functionalized with these PGI1-specific Nanobodies and incubated for an hour at 4° C. on a rotating device with either an EBY100 lysate expressing native (un-tagged) PGI1 or the lysate of the engineered yeast strain (GFP(+)12, H11) expressing PGI1 as a GFP-tagged protein. After washing, these beads were resuspended in SDS-PAGE loading dye and analyzed on SDS-PAGE (FIG. 14A). Separated proteins were also transferred to PVDF membranes and the Western blot was developed with a GFP-specific antibody to confirm the presence of the GFP-tagged PGI1 (FIG. 14B).

GFP-tagged PGI1 = biological target: T2, GFP-tagged PGI1 (Saccharomyces cerevisiae, UniProt P12709 2-554); assay: co-immunoprecipitation, Nb coupled to NHS-agarose beads, lysate of the yeast strain expressing the GFP-tagged target, SDS-PAGE
T2 construct: Yeast GFP Fusion Collection strain; 88 kDa band; also called GFP-PGI1; Yeast GFP fusion collection GFP(+)12, H11; not shown: GFP tag
Procedure: as §1, §2

GFP protein = biological target: T3, GFP protein (Aequorea victoria (Water jellyfish) …, UniProt P42212 1-238 = GFP, biotinylated with the EZ-Link sulfo-NHS-LC-biotinylation kit for the BLI assay; unmodified in the NANEX selections); assay: BLI (Octet), biotinylated GFP on streptavidin sensors saturated with CA12760, second step CA12760 + 2nd Nb
T3 construct: Purified GFP; also called wild type GFP; biotinylated GFP
Procedure: The binding properties of the newly discovered GFP-specific Nanobodies were analysed by a Bio-layer interferometry (BLI) on an OctetRed (molecular devices). Streptavidin-coated Octet® biosensors were used to capture biotinylated GFP (100 nM). Next, the picomolar GFP stripper (CA12760; SEQ ID NO:1) was allowed to bind to GFP until a plateau was reached. These CA12760-saturated biosensors were next incubated separately in solutions containing each newly discovered Nb (as indicated in the legend of the figure), supplemented with CA12760 Nb. Assays were performed in HEPES 25 mM pH 7.5, NaCl 150 mM supplemented with BSA 0.1% and Tween₂₀ 0.005% at room temperature.
Epitope analysis. […] For this we loaded the Streptavidin biosensor with biotinylated GFP, next we allowed CA12760 (SEQ ID NO:1), the GFP-stripper with picomolar affinity, to bind to GFP. After washing, this biosensor loaded with the GFP-CA12760 complex was incubated with the newly discovered Nbs.
Epitope mapping of GFP Nanobodies by Bio-layer interferometry (BLI). Streptavidin-coated Octet® biosensors were used to capture biotinylated GFP (100 nM). Unbound biotinylated GFP is washed off from biosensor by two washing steps (60 seconds in buffer). Next, Streptavidin-coated Octet® biosensors with GFP were first incubated for 400 seconds with 20 nM CA12760, the GFP stripper, washed briefly, followed by an incubation of 400 seconds in a premix of 20 nM CA12760 with the different Nbs to be tested. Data were analyzed on an OctetRed (molecular devices). All assays were performed in HEPES 25 mM pH 7.5, NaCl 150 mM supplemented with BSA 0.1% and Tween₂₀ 0.005% at room temperature.

[2] = biological target: T4, SSA1 (native, from EBY100 lysate) (Saccharomyces cerevisiae, UniProt P10591 2-642); assay: co-IP, Nb on NHS-agarose beads, EBY100 yeast lysate, SDS-PAGE
T4 construct: mature; Endogenous untagged protein; also called YAL005C

GFP-tagged SSA1 = biological target: T5, GFP-tagged SSA1 (Saccharomyces cerevisiae, UniProt P10591 2-642); assay: co-immunoprecipitation, Nb coupled to NHS-agarose beads, lysate of the yeast strain expressing the GFP-tagged target, Western blot anti-GFP
T5 construct: Yeast GFP Fusion Collection strain; also called Yeast GFP fusion collection GFP(+)10, E4; not shown: GFP tag
Procedure: Six SSA1-specific Nanobodies (60=Nb clone CA17560 corresponding to SEQ ID NO: 19, 61=CA17561-SEQ ID NO: 20, 62=CA17562-SEQ ID NO: 21, 63=CA17563-SEQ ID NO: 22, 64=CA17564-SEQ ID NO: 23, 65=CA17565-SEQ ID NO: 24) were characterized by co-immunoprecipitation assays. Each SSA1-specific Nanobodies was covalently linked to NHS-agarose beads. The beads that were functionalized with these SSA1-specific Nanobodies were incubated for an hour at 4° C. on a rotating device with either an EBY100 lysate or the lysate of the engineered Yeast strain expressing SSA1 (Yeast GFP fusion collection reference: GFP(+)10, E4) as a GFP-tagged protein. After washing, these beads were resuspended in SDS-PAGE loading dye and analyzed on SDS-PAGE (FIG. 6A). Separated proteins were transferred to a PVDF membrane and the Western blot (FIG. 6B) was developed with GFP-specific antibody to confirm the presence of GFP-tagged SSA1.

T1 sequence (P12709 2-554): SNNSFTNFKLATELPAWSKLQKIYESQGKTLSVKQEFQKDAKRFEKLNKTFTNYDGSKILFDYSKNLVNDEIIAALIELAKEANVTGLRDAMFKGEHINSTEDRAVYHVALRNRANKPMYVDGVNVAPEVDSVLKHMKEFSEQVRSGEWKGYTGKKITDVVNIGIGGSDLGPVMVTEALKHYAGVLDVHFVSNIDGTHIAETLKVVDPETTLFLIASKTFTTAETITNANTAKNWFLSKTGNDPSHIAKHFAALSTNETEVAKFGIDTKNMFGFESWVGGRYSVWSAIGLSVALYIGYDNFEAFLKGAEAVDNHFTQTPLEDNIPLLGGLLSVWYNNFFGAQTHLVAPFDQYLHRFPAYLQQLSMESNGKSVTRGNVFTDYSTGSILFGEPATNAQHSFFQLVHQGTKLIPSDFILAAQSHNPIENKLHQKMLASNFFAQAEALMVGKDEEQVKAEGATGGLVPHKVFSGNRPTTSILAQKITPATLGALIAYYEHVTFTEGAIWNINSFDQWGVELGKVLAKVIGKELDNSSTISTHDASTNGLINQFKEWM
T2 sequence (P12709 2-554): as above
T4 sequence (P10591 2-642): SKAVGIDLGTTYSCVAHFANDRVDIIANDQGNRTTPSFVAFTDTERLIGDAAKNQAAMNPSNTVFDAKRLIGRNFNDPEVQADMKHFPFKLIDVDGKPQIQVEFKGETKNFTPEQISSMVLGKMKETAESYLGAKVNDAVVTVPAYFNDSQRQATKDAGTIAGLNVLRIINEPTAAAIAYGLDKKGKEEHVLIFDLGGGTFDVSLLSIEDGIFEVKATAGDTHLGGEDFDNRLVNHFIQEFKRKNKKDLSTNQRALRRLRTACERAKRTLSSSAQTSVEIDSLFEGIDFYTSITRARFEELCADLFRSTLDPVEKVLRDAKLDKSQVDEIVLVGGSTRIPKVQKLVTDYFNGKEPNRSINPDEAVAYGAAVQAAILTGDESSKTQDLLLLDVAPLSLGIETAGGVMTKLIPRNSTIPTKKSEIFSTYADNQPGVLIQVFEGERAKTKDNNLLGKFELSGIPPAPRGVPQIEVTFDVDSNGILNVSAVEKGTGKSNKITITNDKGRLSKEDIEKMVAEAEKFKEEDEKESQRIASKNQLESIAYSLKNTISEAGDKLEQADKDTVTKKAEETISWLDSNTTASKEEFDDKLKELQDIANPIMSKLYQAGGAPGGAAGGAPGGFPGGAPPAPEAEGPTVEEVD
T5 sequence (P10591 2-642): as above

Binder	binding result [1]	binding result (GFP-tagged PGI1)	binding result (GFP protein)	other results
CA17791 (VHH, C-terminal 6xHis-EPEA tag is part of the entry) VHH: QVQLVESGGGLVQPGGSLRLSCAASGITFSSYAMGWYRQAPGKERELVARITSGGSTDYAVSVKGRFTISRDNANNLVYLQMNSLNSEDTAVYYCHSQYSYGPLEYWGQGTQVTVSS	binds	binds	–	–
CA17796 (VHH, C-terminal 6xHis-EPEA tag is part of the entry) VHH: QVQLVESGGGLVQPGGSLRLSCAASGISFHSYAMGWYRQAPGKQRELVSTITTGGSTDYAVSVKGRFTISRDNAKNTVYLQMNNLNSEDTAVYYCHSQYAYGPLEYWGQGTQVTVSS	binds	binds	–	–
CA17793 (VHH, C-terminal 6xHis-EPEA tag is part of the entry) VHH: QVQLVESGGGLVRPGGSLRLSCAASGITFSSYTMGWYRQAPGKQRELVATITTGGSTNYAVSAKGRFTISRDNANNRVTLQMNSLNSEDTAAYYCHSRFAYGPLEYWGQGTQVTVSS	binds	binds	–	–
CA17795 (VHH, C-terminal 6xHis-EPEA tag is part of the entry) VHH: QVQLVESGGGLVQPGGSLRLSCAASGSFFNINAMAWYRQAPGKQRELVAVIASSGRTNYADSVSGRFTISRDNAKNTVYLQMNSLKPEDTAVYYCNSKIRQASWNLVLSDHWGQGTQVTVSS	binds	binds	–	–
CA17673 (VHH, C-terminal 6xHis-EPEA tag is part of the entry) VHH: QVQLVESGGGLVQAGGSLRLSCAASARAFMNYIMGWFRQAPGKEREFVATISWSGVTTDYADNVKGRFTISRDNAKNTVSLQMNSLKPEDTAIYYCAAKSAVGYYSDIYNSRAKEYDYWGQGTQVTVSS	–	–	binds	–
CA17563 (VHH, C-terminal 6xHis-EPEA tag is part of the entry) VHH: QVQLVESGGGTVQAGDSLRLSCSASGRALTPYTMAWFRQPPGKERELVAAIGRTGSGTRYAEAVKDRFTISRDNDKQELYLQMNSLKPEDTAVYYCAANRRLTTSLEYDYWGQGTQVTVSS	–	–	–	binding result [2]: binds; binding result (GFP-tagged SSA1): binds
CA17792 (VHH, C-terminal 6xHis-EPEA tag is part of the entry) VHH: QVQLVESGGGLVQPGGSLRLSCAASGISFGSYTMAWYRQAPGKQRDMVADITTGGRTNYADSVKGRFTISRDNAKNTVYLQMNSLKSEDTAVYYCKADFAYGRDLTYWGQGTQVTVSS	binds	binds	–	–
CA17794 (VHH, C-terminal 6xHis-EPEA tag is part of the entry) VHH: QVQLVESGGGLVQPGGSLRLSCTASGVTFSRYAMSWYRQAPGKERELVATITGAGSSTNYEDSVKGRFTISRDNAKNTVYLQMNSLKPEDTAVYYCYADHYGLGYLDYWGQGTQVTVSS	binds	binds	–	–
CA8780 (VHH, Control Nanobody; C-terminal 6xHis-EPEA tag is part of the entry; also called irrelevant Nb) VHH: QVQLQESGGGLVQPGGSLRLSCAPSGPFSPNSMGWYRQAPGKQRELVAVMTIDGRTNYQDSVKGRFTISRDYVKNTAYLQMNNLKPDDTAVYICNAETRGFMHWGQGTQVTVSS	–	–	no binding	–
CA17518 (VHH, C-terminal 6xHis-EPEA tag is part of the entry) VHH: QVQLVESGGGLVQAGGSLRLSCVTSGFTFDDYAIGWFRQAPGKEREGVSSISSSDGTTYYADSVKGRFTISSDNAKNTVYLQMNNLKPEDTAVYYCAADWAAWPSIRVGVGVPAYEYDYWGQGTQVTVSS	–	–	binds	–
CA17519 (VHH, C-terminal 6xHis-EPEA tag is part of the entry) VHH: QVQLVESGGGLVQPGGSLRLSCAASGRIFSIYVMGWYRQAPGKQRELVAQITNSGRTKFADSVKGRFTISRDNAKNMVYLQMNSLKAEDTAVYYCYADLDWYGGTANNDFWGQGTQVTVSS	–	–	binds	–
CA17517 (VHH, C-terminal 6xHis-EPEA tag is part of the entry) VHH: QVQLVESGGGLVQPGGSLRLSCAASGRTFSNYIMGWFRQPPGKEREFVATISWSGSDTVYASSVKGRFTISRDNAKSTVYLQMNSLKPEDTAIYYCAAKDAVGYWSSDVYSEAKEYDYWGQGTQVTVSS	–	–	binds	–
CA17674 (VHH, C-terminal 6xHis-EPEA tag is part of the entry) VHH: QVQLVESGGGLVQPGDFLRLSCAASDRTFSNYIMGWFRQAPGKEREFVATISWSGSDTVYASSVKGRFTISRDNAKSTVYLKMNSLKPEDTAIYYCAAKYAVGYWGNDVASEAKDYNYWGQGTQVTVSS	–	–	binds	–
CA17562 (VHH, C-terminal 6xHis-EPEA tag is part of the entry) VHH: QVQLVESGGGLVQPGGSLRLSCAASGFDFSRNRLNWHRQAPGKQRELVATIGSNGPRYADSVKDRFTISRDNEKNTVYLEMNSVKPEDTAVYYCAARGYWGQGTQVTVSS	–	–	–	binding result [2]: binds; binding result (GFP-tagged SSA1): binds
CA17676 (VHH, C-terminal 6xHis-EPEA tag is part of the entry) VHH: QVQLVESGGGLVQAGGSLRLSCAGSGGTFSAYTMGWFRQGLGEERELVACISRSGASTFYTDPVKGRFTISRDNDKNTVYLQMNNLKPEDTAVYYCAADWTVIDEITEQRSKHQTSYDYWGQGTQVTVSS	–	–	binds	–
CA17675 (VHH, C-terminal 6xHis-EPEA tag is part of the entry) VHH: QVQLVESGGKLVPAGDSLRLSCAASGRTFSDYIIGWFRQVSGKERKFVAAIRRSDGETVYTDSVKGRFTISRDNAKNTVYLQMNSLKPEDTAVYYCYLNNRNSRGSMDAYWGQGTQVTVSS	–	–	binds	–
CA17520 (VHH, C-terminal 6xHis-EPEA tag is part of the entry) VHH: QVQLVESGGGLVQTGGSLRLSCAASVRTFSNYIMGWFRQAPGKEREFVATISWSGINTYYADNVKGRFTISRDNARNTVYLQMNSLKPEDTAIYYCAAKSAVGYYHDSYASRAEEYDYWGQGTQVTVSS	–	–	binds	–
